Where no end group is shown, it is not given here.

This test deals with T1, IL-7Rα-Fc (CD127 protein, Fc tag; ECD 21-236; ACRObiosystems, Inc, Cat. #ILA-H5258) (human, UniProt P16871 21-236).
T1 construct: range 21-236; also called hu-IL-7Rα subunit; not shown: Fc tag of the purchased protein
T1 sequence (looked up): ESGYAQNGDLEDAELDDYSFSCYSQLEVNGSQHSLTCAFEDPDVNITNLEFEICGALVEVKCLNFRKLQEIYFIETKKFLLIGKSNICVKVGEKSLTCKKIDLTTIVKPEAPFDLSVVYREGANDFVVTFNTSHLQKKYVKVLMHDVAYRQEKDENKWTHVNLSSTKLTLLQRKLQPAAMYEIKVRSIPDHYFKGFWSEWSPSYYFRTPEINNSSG
Description: competition binding ELISA, plate-coated receptor, biotinylated reference peptide::NA-HRP tracer. The protocol: Binding of the synthetic IL-7Rα ligands to IL-7Rα was evaluated using a competition binding ELISA. Microtiter plate wells were coated with IL-7Rα-Fc (CD127 protein, Fc tag; ECD 21-236; ACRObiosystems, Inc, Cat. #ILA-H5258) at 1 μg/mL; 50 μL per well in PBS for at least 1 h. The plate was washed once with wash buffer (200 μL, PBS containing 0.05% Tween®-20 (Sigma). Wells were blocked with blocking buffer (PBS containing 1% BSA (BSA Fraction V; VWR Cat. No. 97061-416) for 1 h. A serial dilution of the peptides was prepared, at twice the final concentration, in assay buffer (PBS containing 0.5% BSA and 0.05% Tween®-20) in a 96-well polypropylene plate. A terminal biotinylated form of the reference IL-7Rα peptide ligand having SEQ ID NO: 300 ([…]) was used to make a precomplex with NeutrAvidin-HRP (NA-HRP; ThermoFisher Cat. No. 31030) (Precomplex referred to as bnPeptide::NA-HRP). The bnPeptide::NA-HRP precomplex was prepared by mixing 1.5 μL 100 μM biotinylated peptide, 2 μL NA-HRP and 11.5 PBS and incubated at 4° C. for at least 45 min. After blocking the wells, the plate was washed with a plate washer and serial dilutions of the peptides were added (50 μL/well) and the plate was incubated at 4° C. for 1 h on a plate shaker. […] Fifty (50) μL of a solution (Surmodics Cat. #LSTP-0100-0) was then added and the plate read at 450 nm. […]
(In general: ELISA stands for enzyme-linked immunosorbent assay.)

B1: IL-7Rαγc ligand having SEQ ID NO: 30 (peptide)
peptide: GWGIPWCTLDPGSLQCAWLGKHGGGGSGGVVCQDWEGVELCWQGG
modifications: disulfide (positions not given here); also: two disulfide bridges, pairing not given here
Take B1: the binding result was “binds”.

The record behind these values is patent US20230322880A1 (MEDIKINE, published 2023).
